Measured values from paper PMC2265480, “Identification of Synaptic Targets of Drosophila Pumilio”.

What was measured:
[1] = molecular target: T1, GST-Pum (Pumilio RNA-binding domain) (Drosophila, UniProt P25822 1091-1533); experiment: EMSA; settings: 5:1 protein:RNA, 10 mM Hepes/KOH pH 7.4, 50 mM KCl, 3 mM MgCl2, 1 mM EDTA, 2 mM DTT, 0.1 mg/ml BSA, 0.1 mg/ml yeast tRNA, 0.01% Tween-20, 0.2 U RNasin, 10% glycerol, 10 ul …
T1 sequence: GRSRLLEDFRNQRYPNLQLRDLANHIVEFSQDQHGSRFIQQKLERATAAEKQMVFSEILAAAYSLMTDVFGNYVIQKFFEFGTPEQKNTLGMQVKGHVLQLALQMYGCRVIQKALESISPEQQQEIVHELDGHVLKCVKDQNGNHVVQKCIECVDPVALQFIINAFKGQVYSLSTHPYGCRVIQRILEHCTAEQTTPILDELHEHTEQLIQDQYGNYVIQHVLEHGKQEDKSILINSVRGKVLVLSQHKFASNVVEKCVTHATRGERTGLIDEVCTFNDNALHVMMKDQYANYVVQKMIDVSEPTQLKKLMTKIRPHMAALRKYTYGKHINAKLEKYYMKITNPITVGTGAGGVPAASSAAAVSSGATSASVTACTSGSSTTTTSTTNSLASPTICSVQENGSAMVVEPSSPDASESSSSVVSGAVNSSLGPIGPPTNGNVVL

[2] = molecular target: T2, GST-Pum (Pumilio RNA-binding domain) (Drosophila) (UniProt P25822); experiment: EMSA; settings: 5:1 protein:RNA (50 fmol:10 fmol); one complex; 10 mM Hepes/KOH pH 7.4, 50 mM KCl, 3 mM MgCl2, 1 mM EDTA, 2 mM DTT, 0.1 mg/ml BSA, 0.1 mg/ml yeast tRNA, 0.01% Tween-20, 0.2 U RNasin, 10% glycerol, 10 ul …
T2 sequence: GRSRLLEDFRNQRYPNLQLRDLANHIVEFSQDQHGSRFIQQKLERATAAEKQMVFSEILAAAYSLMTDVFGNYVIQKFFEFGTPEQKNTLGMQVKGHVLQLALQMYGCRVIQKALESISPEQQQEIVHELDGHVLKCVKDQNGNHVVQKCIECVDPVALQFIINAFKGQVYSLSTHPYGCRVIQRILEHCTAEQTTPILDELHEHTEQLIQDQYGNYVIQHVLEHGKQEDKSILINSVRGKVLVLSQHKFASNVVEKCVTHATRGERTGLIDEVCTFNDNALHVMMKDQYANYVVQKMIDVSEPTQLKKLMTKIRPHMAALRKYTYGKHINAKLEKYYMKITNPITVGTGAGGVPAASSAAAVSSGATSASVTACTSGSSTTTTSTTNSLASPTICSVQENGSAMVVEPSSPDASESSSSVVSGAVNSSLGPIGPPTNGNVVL

[3] = molecular target: T1, GST-Pum (Pumilio RNA-binding domain); experiment: EMSA; up to 50 fmol protein:10 fmol RNA; 10 mM Hepes/KOH pH 7.4, 50 mM KCl, 3 mM MgCl2, 1 mM EDTA, 2 mM DTT, 0.1 mg/ml BSA, 0.1 mg/ml yeast tRNA, 0.01% Tween-20, 0.2 U RNasin, 10% glycerol, 10 ul, 20 min room temperature; 5% native gel in 1x TBE; settings: protein: recombinant; tags: N-terminal GST; label: radiolabel

Molecule AP-1gamma 3'UTR 85-191 has a binding signal ([1]; one complex) of 21.8 % bound.

With “AUUAUUUUGUUGUCGAAAAUUGUACAUAAGCC [hb NRE2]” the binding signal [2] was 67.9 % bound.

Ace 3'UTR 722-1095 was tested, and the binding signal [1] was 33 % bound.

With Csp 3'UTR 1218-1545 the binding signal ([1]; 2 sites) was 57.2 % bound.

EP2237 3'UTR 340-514 showed a binding signal [1] of 20.5 % bound.

In the case of Gad1 3'UTR 704-973, the binding signal ([1]; 2 sites) is reported as 35.9 % bound.

dlg1 (isoforms A and D) 3'UTR 1485-1539 showed a binding signal ([1]; one complex) of 56.9 % bound.

dlg1 isoform C 3'UTR 744-829 was tested, and the binding signal ([1]; not bound even at high molar ratio) was 0 % bound.

mam 3'UTR 642-1110 showed a binding signal ([1]; 2 sites) of 73.8 % bound.

shn 3'UTR 809-1013 was tested, and the binding signal ([1]; 2 sites) was 59 % bound.

GGUAGUGCAUACAACUUCCUU (ssRNA) [CRS random control RNA]: no binding [3].
